# Test results: patent US20250276090A1, “Methods and Compositions for Genetically Modifying a Cell” (Intellia Therapeutics, Inc., priority 2022, published 2025)
# Strand notation (5' to 3'): a small letter for the sugar, then the base; units joined by * are phosphorothioate-linked, units joined directly phosphodiester-linked; [ ] holds rarer units or linkages, { } end groups; capitals alone tell only the bases. m = 2'-O-methyl; r = 2'-OH (RNA)
# B1: G000562: AAVS1 SpyCas9 guide RNA, guide sequence SEQ ID NO: 251, chr19:55115695-55115715 (nucleic acid)
# guide: mC*mC*mA*rArUrArUrCrArGrGrArGrArCrUrArGrGrArGrUrUrUrUrArGrAmGmCmUmAmGmAmAmAmUmAmGmCrArArGrUrUrArArArArUrArArGrGrCrUrArGrUrCrCrGrUrUrArUrCrAmAmCmUmUmGmAmAmAmAmAmGmUmGmGmCmAmCmCmGmAmGmUmCmGmGmUmGmCmU*mU*mU*mU
# B2: G013562: AAVS1 SpyCas9 guide RNA, guide sequence SEQ ID NO: 259, chr19:55115834-55115854 (nucleic acid)
# guide: mA*mA*mU*rArUrArArGrGrUrGrGrUrCrCrCrArGrCrUrGrUrUrUrUrArGrAmGmCmUmAmGmAmAmAmUmAmGmCrArArGrUrUrArArArArUrArArGrGrCrUrArGrUrCrCrGrUrUrArUrCrAmAmCmUmUmGmAmAmAmAmAmGmUmGmGmCmAmCmCmGmAmGmUmCmGmGmUmGmCmU*mU*mU*mU
# B3: G013563: AAVS1 SpyCas9 guide RNA, guide sequence SEQ ID NO: 260, chr19:55115835-55115855 (nucleic acid)
# guide: mA*mU*mA*rUrArArGrGrUrGrGrUrCrCrCrArGrCrUrCrGrUrUrUrUrArGrAmGmCmUmAmGmAmAmAmUmAmGmCrArArGrUrUrArArArArUrArArGrGrCrUrArGrUrCrCrGrUrUrArUrCrAmAmCmUmUmGmAmAmAmAmAmGmUmGmGmCmAmCmCmGmAmGmUmCmGmGmUmGmCmU*mU*mU*mU
# B4: G013564: AAVS1 SpyCas9 guide RNA, guide sequence SEQ ID NO: 261, chr19:55115836-55115856 (nucleic acid)
# guide: mU*mA*mU*rArArGrGrUrGrGrUrCrCrCrArGrCrUrCrGrGrUrUrUrUrArGrAmGmCmUmAmGmAmAmAmUmAmGmCrArArGrUrUrArArArArUrArArGrGrCrUrArGrUrCrCrGrUrUrArUrCrAmAmCmUmUmGmAmAmAmAmAmGmUmGmGmCmAmCmCmGmAmGmUmCmGmGmUmGmCmU*mU*mU*mU
# B5: G013582: AAVS1 SpyCas9 guide RNA, guide sequence SEQ ID NO: 263, chr19:55115951-55115971 (nucleic acid)
# guide: mC*mC*mU*rGrUrCrArUrGrGrCrArUrCrUrUrCrCrArGrGrUrUrUrUrArGrAmGmCmUmAmGmAmAmAmUmAmGmCrArArGrUrUrArArArArUrArArGrGrCrUrArGrUrCrCrGrUrUrArUrCrAmAmCmUmUmGmAmAmAmAmAmGmUmGmGmCmAmCmCmGmAmGmUmCmGmGmUmGmCmU*mU*mU*mU
# B6: G013584: AAVS1 SpyCas9 guide RNA, guide sequence SEQ ID NO: 264, chr19:55115949-55115969 (nucleic acid)
# guide: mC*mC*mC*rUrGrGrArArGrArUrGrCrCrArUrGrArCrArGrUrUrUrUrArGrAmGmCmUmAmGmAmAmAmUmAmGmCrArArGrUrUrArArArArUrArArGrGrCrUrArGrUrCrCrGrUrUrArUrCrAmAmCmUmUmGmAmAmAmAmAmGmUmGmGmCmAmCmCmGmAmGmUmCmGmGmUmGmCmU*mU*mU*mU
# B7: G013559: AAVS1 SpyCas9 guide RNA, guide sequence SEQ ID NO: 258, chr19:55115823-55115843 (nucleic acid)
# guide: mC*mC*mG*rGrCrCrCrUrGrGrGrArArUrArUrArArGrGrGrUrUrUrUrArGrAmGmCmUmAmGmAmAmAmUmAmGmCrArArGrUrUrArArArArUrArArGrGrCrUrArGrUrCrCrGrUrUrArUrCrAmAmCmUmUmGmAmAmAmAmAmGmUmGmGmCmAmCmCmGmAmGmUmCmGmGmUmGmCmU*mU*mU*mU
# B8: G013565: AAVS1 SpyCas9 guide RNA, guide sequence SEQ ID NO: 262, chr19:55115850-55115870 (nucleic acid)
# guide: mG*mG*mA*rUrCrCrUrGrUrGrUrCrCrCrCrGrArGrCrUrGrUrUrUrUrArGrAmGmCmUmAmGmAmAmAmUmAmGmCrArArGrUrUrArArArArUrArArGrGrCrUrArGrUrCrCrGrUrUrArUrCrAmAmCmUmUmGmAmAmAmAmAmGmUmGmGmCmAmCmCmGmAmGmUmCmGmGmUmGmCmU*mU*mU*mU
# B9: G013515: AAVS1 SpyCas9 guide RNA, guide sequence SEQ ID NO: 252, chr19:55115588-55115608 (nucleic acid)
# guide: mC*mC*mA*rUrCrGrUrArArGrCrArArArCrCrUrUrArGrGrUrUrUrUrArGrAmGmCmUmAmGmAmAmAmUmAmGmCrArArGrUrUrArArArArUrArArGrGrCrUrArGrUrCrCrGrUrUrArUrCrAmAmCmUmUmGmAmAmAmAmAmGmUmGmGmCmAmCmCmGmAmGmUmCmGmGmUmGmCmU*mU*mU*mU
# B10: G013533: AAVS1 SpyCas9 guide RNA, guide sequence SEQ ID NO: 256, chr19:55115691-55115711 (nucleic acid)
# guide: mA*mG*mA*rCrCrCrArArUrArUrCrArGrGrArGrArCrUrGrUrUrUrUrArGrAmGmCmUmAmGmAmAmAmUmAmGmCrArArGrUrUrArArArArUrArArGrGrCrUrArGrUrCrCrGrUrUrArUrCrAmAmCmUmUmGmAmAmAmAmAmGmUmGmGmCmAmCmCmGmAmGmUmCmGmGmUmGmCmU*mU*mU*mU
# B11: G013519: AAVS1 SpyCas9 guide RNA, guide sequence SEQ ID NO: 253, chr19:55115616-55115636 (nucleic acid)
# guide: mG*mC*mA*rArGrGrArGrArGrArGrArUrGrGrCrUrCrCrGrUrUrUrUrArGrAmGmCmUmAmGmAmAmAmUmAmGmCrArArGrUrUrArArArArUrArArGrGrCrUrArGrUrCrCrGrUrUrArUrCrAmAmCmUmUmGmAmAmAmAmAmGmUmGmGmCmAmCmCmGmAmGmUmCmGmGmUmGmCmU*mU*mU*mU
# B12: G013520: AAVS1 SpyCas9 guide RNA, guide sequence SEQ ID NO: 254, chr19:55115623-55115643 (nucleic acid)
# guide: mG*mA*mG*rArGrArUrGrGrCrUrCrCrArGrGrArArArUrGrUrUrUrUrArGrAmGmCmUmAmGmAmAmAmUmAmGmCrArArGrUrUrArArArArUrArArGrGrCrUrArGrUrCrCrGrUrUrArUrCrAmAmCmUmUmGmAmAmAmAmAmGmUmGmGmCmAmCmCmGmAmGmUmCmGmGmUmGmCmU*mU*mU*mU
# B13: G013523: AAVS1 SpyCas9 guide RNA, guide sequence SEQ ID NO: 255, chr19:55115637-55115657 (nucleic acid)
# guide: mG*mG*mU*rGrArCrArCrArCrCrCrCrCrArUrUrUrCrCrGrUrUrUrUrArGrAmGmCmUmAmGmAmAmAmUmAmGmCrArArGrUrUrArArArArUrArArGrGrCrUrArGrUrCrCrGrUrUrArUrCrAmAmCmUmUmGmAmAmAmAmAmGmUmGmGmCmAmCmCmGmAmGmUmCmGmGmUmGmCmU*mU*mU*mU
# System: AAVS1
# Assay: GFP insertion at AAVS1 in T cells with SpyCas9 RNP and gapped AAV templates, flow cytometry (Example 6)
# Type: cell-based, human
# Settings: Donor 1; Template A; day 7 post-editing
# Protocol: AAVS1 guide RNAs were designed and screened to identify insertion SpyCas9 guides using a series of gapped AAV GFP templates (A, B, C, D, OG) each designed for a subset of the guide RNAs. Insertion efficacy in T cells was examined by assessing GFP expression by flow cytometry. The percentage of T cells positive for green fluorescent protein (“% GFP+”) was assayed by flow cytometry, following AAVS1 editing by mRNA and AAV delivery.
# Healthy human donor apheresis was obtained commercially (Hemacare) from two donors (#110042863 and #110040377) and cells were washed and resuspended in MACS Buffer containing 2 mM EDTA and 0.5% Fetal Bovine Serum (FBS) in PBS. Cells were washed twice by centrifugation followed by CD3 negative selection using Easy Sep Human T Cell Isolation Kit (Stemcell, Cat. 100-0695) and separated using Easy Sep Magnets (Stemcell, Cat.18000). T cells were aliquoted and cryopreserved for future use in Cryostor® CS10 (StemCell Technologies Cat. 07930).
# AAVS1 guide RNAs were assessed for insertion efficacy in T cells by assessing GFP expression by flow cytometry. The percentage of T cells positive for green fluorescent protein (“% GFP+”) was assayed by flow cytometry, following AAVS1 editing by mRNA and AAV delivery.
# AAVS1 targeting sgRNAs corresponding to the flanking homology regions of Gap Templates A, B, C, D, & OG (SEQ ID NOs: 299-303) were removed from their storage plates and denatured for 2 minutes at 95° C. before cooling at room temperature for 10 minutes. RNP mixture of 20 μM sgRNA and 10 μM Cas9-NLS protein (SEQ ID NO: 296) was prepared and incubated at 25° C. for 10 minutes. 2.5 μL of RNP mixture was combined with 250,000 cells in […] P3 electroporation Buffer (Lonza). 22 μL of RNP/cell mix was transferred to the corresponding wells of a Lonza shuttle 96-well electroporation plate. Cells were electroporated in duplicate with the manufacturer's pulse code. T cell media described above without any cytokines was added to the cells immediately post electroporation. T cells were rested for 10 minutes at 37° C. Gap Template AAVs were prepared in 48 well plates (Corning, Cat.353078)) with T cell media described above containing 2× cytokines, 400 U/mL recombinant human interleukin-2 (Peprotech, Cat. 200-02), 10 ng/ml recombinant human interleukin 7 (Peprotech, Cat. 200-07), and 10 ng/ml recombinant human interleukin 15 (Peprotech, Cat. 200-15) cytokines. The multiplicity of infection (MOI) of AAVs was 3×10^^5. AAVs were added to the T cells within 15 minutes post electroporation and incubated for 48 hours at 37° C. AAV-6 vectors encoded AAVS1 Template A, B, C, D or OG. Two days post-electroporation, cells were split 1:2 in 48 well plates replenished with T cell media with 1× cytokines as described above. sgRNAs were tested each with AAV constructs and gapped template.
# On day 7 post-editing, cells were phenotyped by flow cytometry to determine GFP expression to confirm integration of AAV at their GAP template site. Briefly, T cells were washed in FACS buffer containing 2 mM EDTA (Invitrogen, Cat.15575020) and 1% FBS in PBS followed by re-suspending in FACS buffer containing 1:10,000 dilution of DAPI (Biolegend, Cat.422801) nuclear stain. Cells were then processed on a Cytoflex flow cytometer (Beckman Coulter) and analyzed using the FlowJo software package. T cells were gated based on size, shape, viability, and GFP expression. Values that were not determined by the flow cytometer were denoted as “ND”. Table 18 and FIGS. 8A-8B show mean percentage of T cells positive for GFP expression.
row,Molecule,Mean percentage of T cells positive for GFP expression [%]
1,B1,30.60
2,B2,65.75
3,B3,73.15
4,B4,65.95
5,B5,66.30
6,B6,69.15

# Same assay, conditions: Donor 1; Template B; day 7 post-editing
row,Molecule,Mean percentage of T cells positive for GFP expression [%]
1,B1,34.00
2,B2,63.60
3,B3,69.15
4,B4,61.50
5,B7,65.55
6,B8,63.50

# Same assay, conditions: Donor 1; Template C; day 7 post-editing
row,Molecule,Mean percentage of T cells positive for GFP expression [%]
1,B1,57.95
2,B9,61.15
3,B10,65.65

# Same assay, conditions: Donor 1; Template D; day 7 post-editing
row,Molecule,Mean percentage of T cells positive for GFP expression [%]
1,B1,29.65
2,B11,73.35
3,B12,71.80
4,B13,70.50

# Same assay, conditions: Donor 1; Template OG; day 7 post-editing
row,Molecule,Mean percentage of T cells positive for GFP expression [%]
1,B1,41.75

# Same assay, conditions: Donor 2; Template A; day 7 post-editing
row,Molecule,Mean percentage of T cells positive for GFP expression [%]
1,B1,41.20
2,B2,62.35
3,B3,69.40
4,B4,61.20
5,B5,61.00
6,B6,62.95

# Same assay, conditions: Donor 2; Template B; day 7 post-editing
row,Molecule,Mean percentage of T cells positive for GFP expression [%]
1,B1,32.75
2,B2,65.40
3,B3,71.35
4,B4,63.45
5,B7,64.05
6,B8,65.00

# Same assay, conditions: Donor 2; Template C; day 7 post-editing
row,Molecule,Mean percentage of T cells positive for GFP expression [%]
1,B1,59.10
2,B9,60.95
3,B10,65.15

# Same assay, conditions: Donor 2; Template D; day 7 post-editing
row,Molecule,Mean percentage of T cells positive for GFP expression [%]
1,B1,27.50
2,B11,72.10
3,B12,72.20
4,B13,72.05

# Same assay, conditions: Donor 2; Template OG; day 7 post-editing
row,Molecule,Mean percentage of T cells positive for GFP expression [%]
1,B1,37.80
